In article PMC5656675, “Structure based biophysical characterization of the PROPPIN Atg18 shows Atg18 oligomerization upon membrane binding” (Scientific Reports, 2017):
Positions count from the first letter of the chain named.

B1: Pichia angusta Atg18 (wild type) (natural protein, Pichia angusta (Hansenula polymorpha))
chain: MASPNPLAFEAATAAHEVAASYVTEHKPRKNDNINFANFNQDFSCVSVGYSNGYKIYNCEPFGQCYSKSDGSIGIVEMLFSSSLLAIVGMGEQHSLSPRRLKIINTKRQTTICELTFPGAILAVKLNRERLVVLLEETIYIYDINNMRLLHTIETPSNPNGLIALSPSSENNYLAYPSPQKLAPNPQTEVTLHSNPQTVRNGDVIIFDAKTLQPTSVIEAHRTSLAAIALSKDGLLLATASDKGTIIRVFSVATGIKLYQFRRGTYPTKIYSLAFSPDNRFVIASSATETVHIFRLGEEEAANTIKSANKKARLTKAQVPNPLETSPDIYPHNQHTSSDEDEELNEDEEDLDGDEDEDLEDDAHVPVSLQRGRSSSSTGSFHSSESMTDKLKEPLVDNSRKSVARMLRRTSQSLGRKAAEKMGTYLPPKFSSILEPNRHFASLKVPASKETKTVVGVGSKIWDDLIPSVYLKDDANSITETSEDLVNKKLVHIMVITSEGFFYKFGLDPERGGDCVLLHQQSLFG
notes: Atg18 of Pichia angusta (Hansenula polymorpha), UniProt entry Q5QA94, synthetic gene in pET-28a; also called PaAtg18; source: E. coli, purified (HisTrap, Superdex 200); not shown: His-tag, N-terminal, kept
B2: Atg18 C113 single cysteine mutant, fluorescently labelled (natural protein, Pichia angusta (Hansenula polymorpha))
chain: B1 chain with C45A, C59A, C65A, C515A
modifications: C113 labelled with Alexa Fluor 488 C5 maleimide (donor) or Alexa Fluor 546 C5 maleimide (acceptor); in the repeat with Oregon Green 488 maleimide or Texas Red C2 maleimide
notes: Atg18 of Pichia angusta (Hansenula polymorpha), UniProt entry Q5QA94, synthetic gene in pET-28a; single cysteine mutant that keeps C113; That the other four are alanine in it is read from this; Two differently labelled copies of the same protein were mixed; also called C113 mutant; source: E. coli, purified (HisTrap, Superdex 200), labelled with maleimide dye

What was measured:
[1] = biological target: the molecule itself; test: native MS; purified Atg18 exchanged into 200 mM ammonium acetate; Q-ToF Ultima modified for high mass complexes
[2] = biological target: the molecule itself; test: FRET or BRET; stopped-flow, 0.5 µM acceptor-labelled Atg18 C113 bound to LUVs with PtdIns(3,5)P2 (1 mM total lipid) mixed with 0.5 µM donor-labelled Atg18 C113 free in solution; 25 °C, HP150 buffer with 0.1 mM TCEP; dye pairs Alexa Fluor 488/546 and Oregon Green/Texas Red

Row | Protein | stoichiometry N [1] | binding result [2]
1 | B1 | ≤ 4 | 
2 | B2 |  | binds
